Measurements published in PMC12416549 (2024).

Biological target: T1, TNFR1 (Homo sapiens, UniProt P19438)
T1 chain: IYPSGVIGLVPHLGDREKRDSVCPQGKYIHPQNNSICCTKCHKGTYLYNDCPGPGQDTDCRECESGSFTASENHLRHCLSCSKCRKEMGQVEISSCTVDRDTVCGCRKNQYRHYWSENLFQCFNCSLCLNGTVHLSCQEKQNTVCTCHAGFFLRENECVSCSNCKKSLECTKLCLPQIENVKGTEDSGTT
Assay: yeast display SC50

Binder	apparent Kd (screen)
A87G (designed binder) MTLQELLREEALRRAEAEAFRYALELLAEKFPEQKEYLLDLAEEIESQIRSLSGVDVEDVRKFLDKEWAWVKELLAEHPAELAEVEGARAARLAELRAEVEAKVAA	0.869 nM
E29S (designed binder) MTLQELLREEALRRAEAEAFRYALELLASKFPEQKEYLLDLAEEIESQIRSLSGVDVEDVRKFLDKEWAWVKELLAEHPAELAEVEAARAARLAELRAEVEAKVAA	0.539 nM
A28C (designed binder) MTLQELLREEALRRAEAEAFRYALELLCEKFPEQKEYLLDLAEEIESQIRSLSGVDVEDVRKFLDKEWAWVKELLAEHPAELAEVEAARAARLAELRAEVEAKVAA	2.25 nM
E99Q (designed binder) MTLQELLREEALRRAEAEAFRYALELLAEKFPEQKEYLLDLAEEIESQIRSLSGVDVEDVRKFLDKEWAWVKELLAEHPAELAEVEAARAARLAELRAQVEAKVAA	0.539 nM
E99M (designed binder) MTLQELLREEALRRAEAEAFRYALELLAEKFPEQKEYLLDLAEEIESQIRSLSGVDVEDVRKFLDKEWAWVKELLAEHPAELAEVEAARAARLAELRAMVEAKVAA	0.956 nM
L24I (designed binder) MTLQELLREEALRRAEAEAFRYAIELLAEKFPEQKEYLLDLAEEIESQIRSLSGVDVEDVRKFLDKEWAWVKELLAEHPAELAEVEAARAARLAELRAEVEAKVAA	0.653 nM
E10N (designed binder) MTLQELLRENALRRAEAEAFRYALELLAEKFPEQKEYLLDLAEEIESQIRSLSGVDVEDVRKFLDKEWAWVKELLAEHPAELAEVEAARAARLAELRAEVEAKVAA	7.78 nM
R14N (designed binder) MTLQELLREEALRNAEAEAFRYALELLAEKFPEQKEYLLDLAEEIESQIRSLSGVDVEDVRKFLDKEWAWVKELLAEHPAELAEVEAARAARLAELRAEVEAKVAA	0.593 nM
E25R (designed binder) MTLQELLREEALRRAEAEAFRYALRLLAEKFPEQKEYLLDLAEEIESQIRSLSGVDVEDVRKFLDKEWAWVKELLAEHPAELAEVEAARAARLAELRAEVEAKVAA	0.49 nM
L82Y (designed binder) MTLQELLREEALRRAEAEAFRYALELLAEKFPEQKEYLLDLAEEIESQIRSLSGVDVEDVRKFLDKEWAWVKELLAEHPAEYAEVEAARAARLAELRAEVEAKVAA	0.718 nM
A42P (designed binder) MTLQELLREEALRRAEAEAFRYALELLAEKFPEQKEYLLDLPEEIESQIRSLSGVDVEDVRKFLDKEWAWVKELLAEHPAELAEVEAARAARLAELRAEVEAKVAA	0.49 nM
L39M (designed binder) MTLQELLREEALRRAEAEAFRYALELLAEKFPEQKEYLMDLAEEIESQIRSLSGVDVEDVRKFLDKEWAWVKELLAEHPAELAEVEAARAARLAELRAEVEAKVAA	1.4 nM
F31S (designed binder) MTLQELLREEALRRAEAEAFRYALELLAEKSPEQKEYLLDLAEEIESQIRSLSGVDVEDVRKFLDKEWAWVKELLAEHPAELAEVEAARAARLAELRAEVEAKVAA	0.956 nM
L96A (designed binder) MTLQELLREEALRRAEAEAFRYALELLAEKFPEQKEYLLDLAEEIESQIRSLSGVDVEDVRKFLDKEWAWVKELLAEHPAELAEVEAARAARLAEARAEVEAKVAA	2.73 nM
A69C (designed binder) MTLQELLREEALRRAEAEAFRYALELLAEKFPEQKEYLLDLAEEIESQIRSLSGVDVEDVRKFLDKEWCWVKELLAEHPAELAEVEAARAARLAELRAEVEAKVAA	0.405 nM
V60I (designed binder) MTLQELLREEALRRAEAEAFRYALELLAEKFPEQKEYLLDLAEEIESQIRSLSGVDVEDIRKFLDKEWAWVKELLAEHPAELAEVEAARAARLAELRAEVEAKVAA	0.653 nM
Y37D (designed binder) MTLQELLREEALRRAEAEAFRYALELLAEKFPEQKEDLLDLAEEIESQIRSLSGVDVEDVRKFLDKEWAWVKELLAEHPAELAEVEAARAARLAELRAEVEAKVAA	16.7 nM
V57F (designed binder) MTLQELLREEALRRAEAEAFRYALELLAEKFPEQKEYLLDLAEEIESQIRSLSGVDFEDVRKFLDKEWAWVKELLAEHPAELAEVEAARAARLAELRAEVEAKVAA	0.718 nM

Binder	apparent Kd (screen)
A105I (designed binder) MTLQELLREEALRRAEAEAFRYALELLAEKFPEQKEYLLDLAEEIESQIRSLSGVDVEDVRKFLDKEWAWVKELLAEHPAELAEVEAARAARLAELRAEVEAKVIA	0.869 nM
E101Y (designed binder) MTLQELLREEALRRAEAEAFRYALELLAEKFPEQKEYLLDLAEEIESQIRSLSGVDVEDVRKFLDKEWAWVKELLAEHPAELAEVEAARAARLAELRAEVYAKVAA	0.446 nM
D59R (designed binder) MTLQELLREEALRRAEAEAFRYALELLAEKFPEQKEYLLDLAEEIESQIRSLSGVDVERVRKFLDKEWAWVKELLAEHPAELAEVEAARAARLAELRAEVEAKVAA	0.539 nM
A69N (designed binder) MTLQELLREEALRRAEAEAFRYALELLAEKFPEQKEYLLDLAEEIESQIRSLSGVDVEDVRKFLDKEWNWVKELLAEHPAELAEVEAARAARLAELRAEVEAKVAA	0.653 nM
F31G (designed binder) MTLQELLREEALRRAEAEAFRYALELLAEKGPEQKEYLLDLAEEIESQIRSLSGVDVEDVRKFLDKEWAWVKELLAEHPAELAEVEAARAARLAELRAEVEAKVAA	0.869 nM
E67N (designed binder) MTLQELLREEALRRAEAEAFRYALELLAEKFPEQKEYLLDLAEEIESQIRSLSGVDVEDVRKFLDKNWAWVKELLAEHPAELAEVEAARAARLAELRAEVEAKVAA	1.4 nM
K103A (designed binder) MTLQELLREEALRRAEAEAFRYALELLAEKFPEQKEYLLDLAEEIESQIRSLSGVDVEDVRKFLDKEWAWVKELLAEHPAELAEVEAARAARLAELRAEVEAAVAA	0.718 nM
W68F (designed binder) MTLQELLREEALRRAEAEAFRYALELLAEKFPEQKEYLLDLAEEIESQIRSLSGVDVEDVRKFLDKEFAWVKELLAEHPAELAEVEAARAARLAELRAEVEAKVAA	0.539 nM
E67T (designed binder) MTLQELLREEALRRAEAEAFRYALELLAEKFPEQKEYLLDLAEEIESQIRSLSGVDVEDVRKFLDKTWAWVKELLAEHPAELAEVEAARAARLAELRAEVEAKVAA	1.86 nM
P79A (designed binder) MTLQELLREEALRRAEAEAFRYALELLAEKFPEQKEYLLDLAEEIESQIRSLSGVDVEDVRKFLDKEWAWVKELLAEHAAELAEVEAARAARLAELRAEVEAKVAA	0.718 nM
A42I (designed binder) MTLQELLREEALRRAEAEAFRYALELLAEKFPEQKEYLLDLIEEIESQIRSLSGVDVEDVRKFLDKEWAWVKELLAEHPAELAEVEAARAARLAELRAEVEAKVAA	0.593 nM
F63Y (designed binder) MTLQELLREEALRRAEAEAFRYALELLAEKFPEQKEYLLDLAEEIESQIRSLSGVDVEDVRKYLDKEWAWVKELLAEHPAELAEVEAARAARLAELRAEVEAKVAA	12.5 nM
R97D (designed binder) MTLQELLREEALRRAEAEAFRYALELLAEKFPEQKEYLLDLAEEIESQIRSLSGVDVEDVRKFLDKEWAWVKELLAEHPAELAEVEAARAARLAELDAEVEAKVAA	0.593 nM
A88Q (designed binder) MTLQELLREEALRRAEAEAFRYALELLAEKFPEQKEYLLDLAEEIESQIRSLSGVDVEDVRKFLDKEWAWVKELLAEHPAELAEVEAQRAARLAELRAEVEAKVAA	0.49 nM
V85E (designed binder) MTLQELLREEALRRAEAEAFRYALELLAEKFPEQKEYLLDLAEEIESQIRSLSGVDVEDVRKFLDKEWAWVKELLAEHPAELAEEEAARAARLAELRAEVEAKVAA	1.05 nM
A28S (designed binder) MTLQELLREEALRRAEAEAFRYALELLSEKFPEQKEYLLDLAEEIESQIRSLSGVDVEDVRKFLDKEWAWVKELLAEHPAELAEVEAARAARLAELRAEVEAKVAA	0.79 nM
E5C (designed binder) MTLQCLLREEALRRAEAEAFRYALELLAEKFPEQKEYLLDLAEEIESQIRSLSGVDVEDVRKFLDKEWAWVKELLAEHPAELAEVEAARAARLAELRAEVEAKVAA	0.79 nM
